Values belong to the binder of their own block, whether it stands above or below them.
Experiments:
Assay in all cases: holdup assay
Design in all cases: key: below the threshold = too weak to quantify, mostly under pKd 3.1 to 4
GORASP2, Q9H8Y8 = target: GORASP2, Q9H8Y8
GRIP1_5, Q9Y3R0 = target: T1, GRIP1_5, Q9Y3R0
T1 sequence (Q9Y3R0 568-668, limits assumed, looked up): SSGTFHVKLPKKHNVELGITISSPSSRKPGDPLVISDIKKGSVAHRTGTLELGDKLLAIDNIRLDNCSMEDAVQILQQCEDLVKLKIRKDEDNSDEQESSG

LNX1_2, Q8TBB1 = target: LNX1_2, Q8TBB1
LNX1_2, Q8TBB1, sequence (Q8TBB1 371-470): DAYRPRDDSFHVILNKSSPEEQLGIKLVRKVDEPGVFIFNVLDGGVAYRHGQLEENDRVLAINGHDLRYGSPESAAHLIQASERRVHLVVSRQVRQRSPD

ARHGEF11, O15085 = target: T2, ARHGEF11, O15085
T2 sequence (O15085 42-136, limits assumed, looked up): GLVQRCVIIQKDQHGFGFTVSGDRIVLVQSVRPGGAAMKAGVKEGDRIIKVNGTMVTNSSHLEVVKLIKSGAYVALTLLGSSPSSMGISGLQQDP

APBA2_1, Q99767 = target: T3, APBA2_1, Q99767
T3 sequence (Q99767 563-664, limits assumed, looked up): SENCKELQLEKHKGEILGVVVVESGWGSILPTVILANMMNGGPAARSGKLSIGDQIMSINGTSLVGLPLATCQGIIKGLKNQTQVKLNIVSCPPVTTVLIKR

APBA1_1, Q02410 = target: T4, APBA1_1, Q02410
T4 sequence (Q02410 651-752, limits assumed, looked up): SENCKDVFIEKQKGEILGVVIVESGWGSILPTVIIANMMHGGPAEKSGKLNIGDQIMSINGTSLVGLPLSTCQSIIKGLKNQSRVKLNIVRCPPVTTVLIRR

DLG1_2, Q12959 = target: DLG1_2, Q12959
DLG1_2, Q12959, sequence (Q12959 314-412): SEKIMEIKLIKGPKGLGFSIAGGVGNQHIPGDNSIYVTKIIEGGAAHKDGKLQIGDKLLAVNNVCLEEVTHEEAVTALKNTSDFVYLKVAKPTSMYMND

DLG3_3, Q92796 = target: T5, DLG3_3, Q92796
T5 sequence (Q92796 374-475, limits assumed, looked up): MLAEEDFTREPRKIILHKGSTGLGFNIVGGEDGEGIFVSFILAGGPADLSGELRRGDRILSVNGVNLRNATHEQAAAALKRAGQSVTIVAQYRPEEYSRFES

SNTB1, Q13884 = target: T6, SNTB1, Q13884
T6 sequence (Q13884 107-205, limits assumed, looked up): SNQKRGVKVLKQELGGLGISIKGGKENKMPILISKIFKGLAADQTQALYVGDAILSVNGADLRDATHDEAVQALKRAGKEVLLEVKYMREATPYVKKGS

FRMPD4, Q14CM0 = target: FRMPD4, Q14CM0
FRMPD4, Q14CM0, sequence (Q14CM0 67-160): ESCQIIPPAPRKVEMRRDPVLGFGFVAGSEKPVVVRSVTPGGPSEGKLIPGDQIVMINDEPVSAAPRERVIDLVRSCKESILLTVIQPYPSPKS

MPP2, Q14168 = target: T7, MPP2, Q14168
T7 sequence (Q14168 180-250, limits assumed, looked up): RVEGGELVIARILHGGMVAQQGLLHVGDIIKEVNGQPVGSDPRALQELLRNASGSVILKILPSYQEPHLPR

GRID2IP_2, A4D2P6 = target: GRID2IP_2, A4D2P6
GRID2IP_2, A4D2P6, sequence (A4D2P6 272-370): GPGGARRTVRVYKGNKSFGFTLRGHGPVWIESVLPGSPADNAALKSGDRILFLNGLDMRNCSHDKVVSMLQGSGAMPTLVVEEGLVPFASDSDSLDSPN

APBA2_2, Q99767 = target: T8, APBA2_2, Q99767
T8 sequence (Q99767 654-744, limits assumed, looked up): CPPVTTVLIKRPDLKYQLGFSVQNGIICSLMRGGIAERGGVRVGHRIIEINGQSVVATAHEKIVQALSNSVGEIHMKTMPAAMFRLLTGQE

LNX1_1, Q8TBB1 = target: LNX1_1, Q8TBB1
LNX1_1, Q8TBB1, sequence (Q8TBB1 261-371): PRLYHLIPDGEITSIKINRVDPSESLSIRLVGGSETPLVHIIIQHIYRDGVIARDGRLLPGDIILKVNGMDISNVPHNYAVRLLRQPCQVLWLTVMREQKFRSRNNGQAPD

IL16_1, Q14005 = target: IL16_1, Q14005
IL16_1, Q14005, sequence (Q14005 210-306): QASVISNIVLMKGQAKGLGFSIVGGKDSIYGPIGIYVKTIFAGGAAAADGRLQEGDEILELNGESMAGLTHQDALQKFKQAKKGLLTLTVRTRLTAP

GRIP1_2, Q9Y3R0 = target: T9, GRIP1_2, Q9Y3R0
T9 sequence (Q9Y3R0 145-248, limits assumed, looked up): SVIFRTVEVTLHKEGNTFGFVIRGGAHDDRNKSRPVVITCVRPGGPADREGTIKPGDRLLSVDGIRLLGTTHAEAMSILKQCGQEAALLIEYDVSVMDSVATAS

DLG1_3, Q12959 = target: DLG1_3, Q12959
DLG1_3, Q12959, sequence (Q12959 457-571): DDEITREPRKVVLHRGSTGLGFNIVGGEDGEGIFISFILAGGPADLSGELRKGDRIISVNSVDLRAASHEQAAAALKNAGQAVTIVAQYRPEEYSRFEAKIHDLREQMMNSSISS

DFNB31_1, Q9P202 = target: T10, DFNB31_1, Q9P202
T10 sequence (Q9P202 135-233, limits assumed, looked up): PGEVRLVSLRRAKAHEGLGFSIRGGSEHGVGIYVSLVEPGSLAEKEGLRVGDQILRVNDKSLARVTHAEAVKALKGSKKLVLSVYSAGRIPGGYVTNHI

GOPC, Q9HD26 = target: GOPC, Q9HD26
NHERF3_3, Q5T2W1 = target: T11, NHERF3_3, Q5T2W1
T11 sequence (Q5T2W1 238-333, limits assumed, looked up): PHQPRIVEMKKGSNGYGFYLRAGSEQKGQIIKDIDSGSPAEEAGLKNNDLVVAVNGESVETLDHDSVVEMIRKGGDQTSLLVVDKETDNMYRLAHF

MPDZ_5, O75970 = target: T12, MPDZ_5, O75970
T12 sequence (O75970 695-796, limits assumed, looked up): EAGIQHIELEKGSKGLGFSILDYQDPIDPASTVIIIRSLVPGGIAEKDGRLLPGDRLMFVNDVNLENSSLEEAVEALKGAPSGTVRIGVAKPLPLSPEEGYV

TJP1_3, Q07157 = target: TJP1_3, Q07157
TJP1_3, Q07157, sequence (Q07157 416-512): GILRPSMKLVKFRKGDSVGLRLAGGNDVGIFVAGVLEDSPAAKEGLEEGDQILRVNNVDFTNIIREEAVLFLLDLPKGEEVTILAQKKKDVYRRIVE

NHERF4_4, Q86UT5 = target: NHERF4_4, Q86UT5
NHERF4_4, Q86UT5, sequence (Q86UT5 464-550): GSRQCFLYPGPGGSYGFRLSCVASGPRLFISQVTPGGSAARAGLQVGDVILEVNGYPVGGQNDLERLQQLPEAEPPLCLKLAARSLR

DLG4_1, P78352 = target: DLG4_1, P78352
DLG4_1, P78352, sequence (P78352 62-152): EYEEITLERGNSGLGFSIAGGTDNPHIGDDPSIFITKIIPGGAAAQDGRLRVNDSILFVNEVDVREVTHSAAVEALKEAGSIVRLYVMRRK

IL16_3, Q14005 = target: IL16_3, Q14005
IL16_3, Q14005, sequence (Q14005 1107-1207): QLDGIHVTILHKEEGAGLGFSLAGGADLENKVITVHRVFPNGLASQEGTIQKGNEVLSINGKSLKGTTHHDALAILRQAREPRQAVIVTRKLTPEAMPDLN

CASK, O14936 = target: CASK, O14936
CASK, O14936, sequence (O14936 487-570): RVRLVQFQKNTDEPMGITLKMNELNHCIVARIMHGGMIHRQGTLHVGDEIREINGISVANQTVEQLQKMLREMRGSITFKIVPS

[1] = modified: phospho on S at position -3 from the C-terminal residue
[2] = modified: acetyl on K at position -1 from the C-terminal residue

pKd (GORASP2, Q9H8Y8; [1]): 3.56
pKd (GRIP1_5, Q9Y3R0; [1]): below the threshold
pKd (LNX1_2, Q8TBB1; [1]): below the threshold
pKd (ARHGEF11, O15085; [1]): below the threshold
pKd (APBA2_1, Q99767; [1]): below the threshold
pKd (APBA1_1, Q02410; [1]): below the threshold
pKd (DLG1_2, Q12959; [1]): 3.61
pKd (DLG3_3, Q92796; [1]): below the threshold
pKd (SNTB1, Q13884; [1]): 4.39
pKd (FRMPD4, Q14CM0; [1]): 3.73
pKd (MPP2, Q14168; [1]): below the threshold
pKd (GRID2IP_2, A4D2P6; [1]): below the threshold
pKd (APBA2_2, Q99767; [1]): below the threshold
pKd (LNX1_1, Q8TBB1; [1]): below the threshold
pKd (IL16_1, Q14005; [1]): below the threshold
pKd (GRIP1_2, Q9Y3R0; [1]): below the threshold
pKd (DLG1_3, Q12959; [1]): below the threshold
pKd (DFNB31_1, Q9P202; [1]): 3.6
pKd (GOPC, Q9HD26; [1]): below the threshold
pKd (NHERF3_3, Q5T2W1; [1]): below the threshold
pKd (MPDZ_5, O75970; [1]): below the threshold
pKd (TJP1_3, Q07157; [1]): below the threshold
pKd (NHERF4_4, Q86UT5; [1]): below the threshold
pKd (DLG4_1, P78352; [1]): below the threshold
pKd (IL16_3, Q14005; [1]): below the threshold
pKd (CASK, O14936; [1]): below the threshold
Binder: RRVRKLPSTTL [RPS6KA1_-3P, Q15418]

pKd (GORASP2, Q9H8Y8; [2]): 4.06
pKd (GRIP1_5, Q9Y3R0; [2]): below the threshold
pKd (LNX1_2, Q8TBB1; [2]): 4.18
pKd (ARHGEF11, O15085; [2]): 5.16
pKd (APBA2_1, Q99767; [2]): below the threshold
pKd (APBA1_1, Q02410; [2]): below the threshold
pKd (DLG1_2, Q12959; [2]): 4.67
pKd (DLG3_3, Q92796; [2]): below the threshold
pKd (SNTB1, Q13884; [2]): 4.79
pKd (FRMPD4, Q14CM0; [2]): below the threshold
pKd (MPP2, Q14168; [2]): below the threshold
pKd (GRID2IP_2, A4D2P6; [2]): 4.39
pKd (APBA2_2, Q99767; [2]): below the threshold
pKd (LNX1_1, Q8TBB1; [2]): 3.61
pKd (IL16_1, Q14005; [2]): 3.84
pKd (GRIP1_2, Q9Y3R0; [2]): below the threshold
pKd (DLG1_3, Q12959; [2]): below the threshold
pKd (DFNB31_1, Q9P202; [2]): 3.68
pKd (GOPC, Q9HD26; [2]): 4.19
pKd (NHERF3_3, Q5T2W1; [2]): below the threshold
pKd (MPDZ_5, O75970; [2]): below the threshold
pKd (TJP1_3, Q07157; [2]): below the threshold
pKd (NHERF4_4, Q86UT5; [2]): below the threshold
pKd (DLG4_1, P78352; [2]): 3.98
pKd (IL16_3, Q14005; [2]): below the threshold
pKd (CASK, O14936; [2]): below the threshold
Binder: DEDQHTQITKV [PTEN_Ac, P60484]

— publication PMC9482650, “Quantitative fragmentomics allow affinity mapping of interactomes” (Nature Communications, 2022)
